According to paper PMC3845372:

Biological target: RecA (RecAEc) (Escherichia coli, UniProt P0A7G6 2-353)
Experiment: fluorescence anisotropy

RecA (RecAEc), sequence (P0A7G6 2-353): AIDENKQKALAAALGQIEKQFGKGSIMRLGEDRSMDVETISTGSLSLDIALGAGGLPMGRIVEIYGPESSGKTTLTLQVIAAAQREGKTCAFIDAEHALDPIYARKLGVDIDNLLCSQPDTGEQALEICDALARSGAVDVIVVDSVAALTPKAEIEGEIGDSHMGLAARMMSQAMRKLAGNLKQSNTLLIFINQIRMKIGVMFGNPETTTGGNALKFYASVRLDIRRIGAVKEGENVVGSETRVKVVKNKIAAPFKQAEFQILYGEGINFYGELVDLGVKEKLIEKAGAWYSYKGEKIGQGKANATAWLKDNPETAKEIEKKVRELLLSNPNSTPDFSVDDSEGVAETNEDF

Binder | binding result | Kd
GGGTGGGTTGGGTGGG (structured_DNA) [dimeric pilE G4 (NG16 core)] | no binding | 
TTTTTTTTTTTTTTTT (ssDNA) [oligo dT16] |  | 640 ± 260 nM
